Publication doi:10.1101/2024.08.29.610189 (bioRxiv, 2024)

T1: Atg17–Atg29–Atg31 complex, wild type (S. cerevisiae (budding yeast), UniProt Q06410 1-417; Q12092 1-213; Q12421 1-196)
T1 sequence (looked up) 1: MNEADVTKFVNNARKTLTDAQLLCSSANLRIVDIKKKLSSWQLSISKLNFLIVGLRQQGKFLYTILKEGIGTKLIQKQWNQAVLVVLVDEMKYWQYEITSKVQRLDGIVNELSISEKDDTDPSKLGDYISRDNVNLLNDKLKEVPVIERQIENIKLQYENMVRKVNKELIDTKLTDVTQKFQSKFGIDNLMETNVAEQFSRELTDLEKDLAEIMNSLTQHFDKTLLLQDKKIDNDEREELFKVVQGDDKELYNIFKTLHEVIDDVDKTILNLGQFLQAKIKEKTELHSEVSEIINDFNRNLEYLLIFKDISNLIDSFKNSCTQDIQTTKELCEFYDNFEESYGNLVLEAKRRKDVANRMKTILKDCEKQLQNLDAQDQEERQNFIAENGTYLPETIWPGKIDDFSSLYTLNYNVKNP
T1 sequence (looked up) 2: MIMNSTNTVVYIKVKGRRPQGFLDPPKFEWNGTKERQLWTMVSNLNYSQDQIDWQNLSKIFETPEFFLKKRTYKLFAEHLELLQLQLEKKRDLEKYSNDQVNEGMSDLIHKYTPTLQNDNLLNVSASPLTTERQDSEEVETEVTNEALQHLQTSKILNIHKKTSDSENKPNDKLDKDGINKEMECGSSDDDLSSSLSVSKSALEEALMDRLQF
T1 sequence (looked up) 3: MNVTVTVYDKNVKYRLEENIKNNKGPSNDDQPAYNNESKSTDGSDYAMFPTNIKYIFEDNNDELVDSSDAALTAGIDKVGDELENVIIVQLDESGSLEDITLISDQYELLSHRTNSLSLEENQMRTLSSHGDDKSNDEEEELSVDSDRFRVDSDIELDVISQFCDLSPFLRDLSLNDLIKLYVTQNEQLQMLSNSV


What was measured:
[1] = target: Atg17–Atg31C (residues 174–196) complex (S. cerevisiae (budding yeast), UniProt Q06410 1-417; Q12421 174-196); experiment: ITC
[2] = target: T1, Atg17–Atg29–Atg31 complex, wild type; experiment: pull-down

Row | Binder | Kd [1] | binding result [2]
1 | TVQNRLELFSRRLSQLGLASD (domain or fragment, S. cerevisiae (budding yeast), UniProt P38316 42-62, looked up) [Atg12^17BH–mGFP, wild type (Atg12 residues 42–62 with C-terminal mGFP)] | 3.8 µM | 
2 | TVQNRLELASRRLSQLGLASD (domain or fragment, S. cerevisiae (budding yeast), UniProt P38316 42-62, looked up) [GST–Atg12^17BH F50A] |  | binds
